Experiments:
[1] = target: T1, PUF4 RNA-binding domain (Pumilio homology domain) (Saccharomyces cerevisiae, UniProt P25339 537-888); assay: RNA-MaP; ddG 3.923; RNA-MaP: 20 mM Na-HEPES pH 7.4, 0.1% Tween-20, 5% glycerol, 0.1 mg/mL BSA, 2 mM DTT, low salt 0.75 mM MgCl2 + 30 mM KOAc (model data; high salt 2 mM MgCl2 + 100 mM KOAc), 25 C; settings: protein: recombinant; tags: C-terminal SNAP tag, Cy3B-labeled; N-terminal His tag removed with TEV; label: array RNA; single-stranded
T1 sequence: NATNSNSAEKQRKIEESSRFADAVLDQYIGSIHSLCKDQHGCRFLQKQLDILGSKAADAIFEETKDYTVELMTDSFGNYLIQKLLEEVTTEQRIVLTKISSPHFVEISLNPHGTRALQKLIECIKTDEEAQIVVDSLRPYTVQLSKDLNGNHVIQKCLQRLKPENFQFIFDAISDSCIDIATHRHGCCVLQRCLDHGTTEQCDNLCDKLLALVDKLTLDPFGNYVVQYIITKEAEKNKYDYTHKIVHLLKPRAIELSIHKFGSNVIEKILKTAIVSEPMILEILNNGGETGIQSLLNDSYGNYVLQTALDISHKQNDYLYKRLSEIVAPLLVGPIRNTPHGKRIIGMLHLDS

[2] = target: T1, PUF4 RNA-binding domain (Pumilio …); assay: RNA-MaP; ddG 3.166; RNA-MaP: 20 mM Na-HEPES pH 7.4, 0.1% Tween-20, 5% glycerol, 0.1 mg/mL BSA, 2 mM DTT, low salt 0.75 mM MgCl2 + 30 mM KOAc (model data; high salt 2 mM MgCl2 + 100 mM KOAc), 25 C; settings: protein: recombinant; tags: C-terminal SNAP tag, Cy3B-labeled; N-terminal His tag removed with TEV; label: array RNA; single-stranded
[3] = target: T1, PUF4 RNA-binding domain (Pumilio …); assay: RNA-MaP; ddG 1.467; RNA-MaP: 20 mM Na-HEPES pH 7.4, 0.1% Tween-20, 5% glycerol, 0.1 mg/mL BSA, 2 mM DTT, low salt 0.75 mM MgCl2 + 30 mM KOAc (model data; high salt 2 mM MgCl2 + 100 mM KOAc), 25 C; settings: protein: recombinant; tags: C-terminal SNAP tag, Cy3B-labeled; N-terminal His tag removed with TEV; label: array RNA; single-stranded
[4] = target: T1, PUF4 RNA-binding domain (Pumilio …); assay: RNA-MaP; ddG 1.827; RNA-MaP: 20 mM Na-HEPES pH 7.4, 0.1% Tween-20, 5% glycerol, 0.1 mg/mL BSA, 2 mM DTT, low salt 0.75 mM MgCl2 + 30 mM KOAc (model data; high salt 2 mM MgCl2 + 100 mM KOAc), 25 C; settings: protein: recombinant; tags: C-terminal SNAP tag, Cy3B-labeled; N-terminal His tag removed with TEV; label: array RNA; single-stranded
[5] = target: T1, PUF4 RNA-binding domain (Pumilio …); assay: RNA-MaP; ddG 1.315; RNA-MaP: 20 mM Na-HEPES pH 7.4, 0.1% Tween-20, 5% glycerol, 0.1 mg/mL BSA, 2 mM DTT, low salt 0.75 mM MgCl2 + 30 mM KOAc (model data; high salt 2 mM MgCl2 + 100 mM KOAc), 25 C; settings: protein: recombinant; tags: C-terminal SNAP tag, Cy3B-labeled; N-terminal His tag removed with TEV; label: array RNA; single-stranded
[6] = target: T1, PUF4 RNA-binding domain (Pumilio …); assay: RNA-MaP; ddG 0.390; RNA-MaP: 20 mM Na-HEPES pH 7.4, 0.1% Tween-20, 5% glycerol, 0.1 mg/mL BSA, 2 mM DTT, low salt 0.75 mM MgCl2 + 30 mM KOAc (model data; high salt 2 mM MgCl2 + 100 mM KOAc), 25 C; settings: protein: recombinant; tags: C-terminal SNAP tag, Cy3B-labeled; N-terminal His tag removed with TEV; label: array RNA; single-stranded
PUF4 RNA-binding domain = target: T2, PUF4 RNA-binding domain (Saccharomyces cerevisiae, UniProt P25339 537-888); assay: Mg; RNA-MaP; 20 mM Na-HEPES pH 7.4, 30 mM KOAc, 0.75 mM MgCl2, 0.1% Tween-20, 5% glycerol, 0.1 mg/mL BSA, 2 mM DTT; 25 C; 0.0125-409.6 nM protein; settings: tags: N-His6-TEV cleaved; C-SNAP kept, Cy3B-labelled; label: tethered on chip by stalled RNA polymerase
T2 sequence: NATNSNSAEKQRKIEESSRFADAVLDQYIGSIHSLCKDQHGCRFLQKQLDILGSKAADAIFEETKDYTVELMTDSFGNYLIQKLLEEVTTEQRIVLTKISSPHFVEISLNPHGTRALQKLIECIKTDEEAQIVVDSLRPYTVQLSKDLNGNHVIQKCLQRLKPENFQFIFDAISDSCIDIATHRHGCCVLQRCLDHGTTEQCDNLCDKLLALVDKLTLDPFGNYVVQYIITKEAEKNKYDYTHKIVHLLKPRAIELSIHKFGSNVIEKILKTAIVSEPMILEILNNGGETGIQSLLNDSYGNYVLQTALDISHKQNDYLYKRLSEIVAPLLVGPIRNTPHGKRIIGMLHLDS

[7] = target: T1, PUF4 RNA-binding domain (Pumilio …); assay: RNA-MaP; ddG 2.995; RNA-MaP: 20 mM Na-HEPES pH 7.4, 0.1% Tween-20, 5% glycerol, 0.1 mg/mL BSA, 2 mM DTT, low salt 0.75 mM MgCl2 + 30 mM KOAc (model data; high salt 2 mM MgCl2 + 100 mM KOAc), 25 C; settings: protein: recombinant; tags: C-terminal SNAP tag, Cy3B-labeled; N-terminal His tag removed with TEV; label: array RNA; single-stranded
[8] = target: T1, PUF4 RNA-binding domain (Pumilio …); assay: RNA-MaP; ddG 1.663; RNA-MaP: 20 mM Na-HEPES pH 7.4, 0.1% Tween-20, 5% glycerol, 0.1 mg/mL BSA, 2 mM DTT, low salt 0.75 mM MgCl2 + 30 mM KOAc (model data; high salt 2 mM MgCl2 + 100 mM KOAc), 25 C; settings: protein: recombinant; tags: C-terminal SNAP tag, Cy3B-labeled; N-terminal His tag removed with TEV; label: array RNA; single-stranded
[9] = target: T1, PUF4 RNA-binding domain (Pumilio …); assay: RNA-MaP; ddG 0.243; RNA-MaP: 20 mM Na-HEPES pH 7.4, 0.1% Tween-20, 5% glycerol, 0.1 mg/mL BSA, 2 mM DTT, low salt 0.75 mM MgCl2 + 30 mM KOAc (model data; high salt 2 mM MgCl2 + 100 mM KOAc), 25 C; settings: protein: recombinant; tags: C-terminal SNAP tag, Cy3B-labeled; N-terminal His tag removed with TEV; label: array RNA; single-stranded

B1: S1a K3.1 T1G (ssRNA)
RNA: UCUCUUGGUAUAUAUCUCUU
- Kd [1]: -7.7 ± 0.635 kcal/mol (dG=RTlnKd)

B2: S1a K3.1 G2A (ssRNA)
RNA: UCUCUUUAUAUAUAUCUCUU
- Kd [2]: -8.45 ± 0.403 kcal/mol (dG=RTlnKd)

B3: S1a K3.1 A6T (ssRNA)
RNA: UCUCUUUGUAUUUAUCUCUU
- Kd [3]: -10.2 ± 0.227 kcal/mol (dG=RTlnKd)

B4: S1a K3.1 A6G (ssRNA)
RNA: UCUCUUUGUAUGUAUCUCUU
- Kd [4]: -9.79 ± 0.309 kcal/mol (dG=RTlnKd)

B5: S1a K3.1 T5A (ssRNA)
RNA: UCUCUUUGUAAAUAUCUCUU
- Kd [5]: -10.3 ± 0.252 kcal/mol (dG=RTlnKd)

B6: S1a K3.1 T5C (ssRNA)
RNA: UCUCUUUGUACAUAUCUCUU
- Kd [6]: -11.2 ± 0.37 kcal/mol (dG=RTlnKd)

B7: Ib_S3_P4E.1_K4.1_C4.1_H4.1_[T1A]_[G2C]_A4.1_F4.1_T4.1 (ssRNA)
RNA: ACAAACACUAUAUUAACAAAC
- Kd (PUF4 RNA-binding domain): > 2.3 µM

B8: S1a K3.1 A4T (ssRNA)
RNA: UCUCUUUGUUUAUAUCUCUU
- Kd [7]: -8.62 ± 0.651 kcal/mol (dG=RTlnKd)

B9: S1a K3.1 T7A (ssRNA)
RNA: UCUCUUUGUAUAAAUCUCUU
- Kd [8]: -9.96 ± 0.7 kcal/mol (dG=RTlnKd)

B10: S1a K3.1 A8T (ssRNA)
RNA: UCUCUUUGUAUAUUUCUCUU
- Kd [9]: -11.4 ± 0.257 kcal/mol (dG=RTlnKd)

— article PMC9352680, “A comprehensive thermodynamic model for RNA binding by the Saccharomyces cerevisiae Pumilio protein PUF4”
